Measured values from patent US10064928B2, “Peptides and combination of peptides for use in immunotherapy against CLL and other cancers” (IMMATICS BIOTECHNOLOGIES GMBH, priority 2015, dated 2018).

Target: HLA-A*02:01 (Homo sapiens, UniProt P04439, D140Y/D185E/D98H/E176V/E277Q/G131W/G231S/I119V/I121R/I166T/I218V/L300P/L318F/N151K/N90K/P208A/P217A/Q86G/Q94H/R138H/R169H/T345S)
Test: MHC binding assay (UV-ligand exchange, beta2m ELISA)
Settings: binding of HLA-class I restricted peptides to HLA-A*02:01, β2m ELISA
Method in brief: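 UV-exchange pMHC monomers, 100-fold diluted → streptavidin capture 1 h 37 °C → HRP anti-β2m 2 ug/ml 1 h 37 °C → TMB, A450. Yield from HLA-A*02:01/MLA-001 monomer standard curve, 15-500 ng/ml. Only stably bound peptides keep β2m-containing complexes intact.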

Question: For “251 (LLYDNVPGA; listed as Homo sapiens) [compound 251]”, which “Peptide Exchange (MHC class I binding score, peptide exchange yield)” value (shortened to “Peptide Exchange”) is on record?
Answer: The value was ““+++” (≥50 = +++)”.

Question: With “252 (NLLDPGSSYLL; listed as Homo sapiens) [compound 252]” as the substance, how does the “Peptide Exchange” value read?
Answer: Its value is ““+++” (≥50 = +++)”.

Question: Which “Peptide Exchange” value does the source give for “253 (NLWSVDGEVTV; listed as Homo sapiens) [compound 253]” here?
Answer: The value was ““+++” (≥50 = +++)”.

Question: For “254 (QLIPKLIFL; listed as Homo sapiens) [compound 254]”, which “Peptide Exchange” value is on record?
Answer: Its value is ““+++” (≥50 = +++)”.

Question: Which “Peptide Exchange” value does the source give for “255 (YLFEEAISM; listed as Homo sapiens) [compound 255]” here?
Answer: The value was ““+++” (≥50 = +++)”.

Question: “256 (QLLPVSNVVSV; listed as Homo sapiens) [compound 256]” was tested. Which “Peptide Exchange” value did it give?
Answer: Its value is ““+++” (≥50 = +++)”.

Question: How did the “Peptide Exchange” value turn out when “258 (RLDYITAEI; listed as Homo sapiens) [compound 258]” was run?
Answer: The value was ““+++” (≥50 = +++)”.

Question: For “259 (RLLDEQFAVL; listed as Homo sapiens) [compound 259]”, which “Peptide Exchange” value is on record?
Answer: Its value is ““+++” (≥50 = +++)”.

Question: How did the “Peptide Exchange” value turn out when “260 (SLDDVEGMSV; listed as Homo sapiens) [compound 260]” was run?
Answer: Its value is ““+++” (≥50 = +++)”.

Question: With “261 (SLVEAQGWLV; listed as Homo sapiens) [compound 261]” as the substance, how does the “Peptide Exchange” value read?
Answer: The value was ““+++” (≥50 = +++)”.

Question: For “262 (SLWNAGTSV; listed as Homo sapiens) [compound 262]”, which “Peptide Exchange” value is on record?
Answer: Its value is ““+++” (≥50 = +++)”.

Question: How did the “Peptide Exchange” value turn out when “263 (SQWEDIHVV; listed as Homo sapiens) [compound 263]” was run?
Answer: The value was ““+++” (≥50 = +++)”.

Question: “264 (TILDYINVV; listed as Homo sapiens) [compound 264]” was tested. Which “Peptide Exchange” value did it give?
Answer: The value was ““+++” (≥50 = +++)”.

Question: With “265 (TLLADDLEIKL; listed as Homo sapiens) [compound 265]” as the substance, how does the “Peptide Exchange” value read?
Answer: Its value is ““+++” (≥50 = +++)”.

Question: With “266 (TLLDQLDTQL; listed as Homo sapiens) [compound 266]” as the substance, how does the “Peptide Exchange” value read?
Answer: Its value is ““++” (≥20% = ++)”.

Question: Which “Peptide Exchange” value does the source give for “267 (TLLDWQDSL; listed as Homo sapiens) [compound 267]” here?
Answer: The value was ““+++” (≥50 = +++)”.

Question: With “268 (TLLQVFHLL; listed as Homo sapiens) [compound 268]” as the substance, how does the “Peptide Exchange” value read?
Answer: The value was ““+++” (≥50 = +++)”.

Question: For “269 (TLTDEQFLV; listed as Homo sapiens) [compound 269]”, which “Peptide Exchange” value is on record?
Answer: Its value is ““++” (≥20% = ++)”.

Question: “270 (TVLPVPPLSV; listed as Homo sapiens) [compound 270]” was tested. Which “Peptide Exchange” value did it give?
Answer: Its value is ““+++” (≥50 = +++)”.

Question: With “271 (VIRNIVEAA; listed as Homo sapiens) [compound 271]” as the substance, how does the “Peptide Exchange” value read?
Answer: Its value is ““++” (≥20% = ++)”.

Question: How did the “Peptide Exchange” value turn out when “272 (VLDELPPLI; listed as Homo sapiens) [compound 272]” was run?
Answer: The value was ““+++” (≥50 = +++)”.

Question: With “273 (VLGEYSYLL; listed as Homo sapiens) [compound 273]” as the substance, how does the “Peptide Exchange” value read?
Answer: Its value is ““+++” (≥50 = +++)”.

Question: With “274 (VLLEYHIAYL; listed as Homo sapiens) [compound 274]” as the substance, how does the “Peptide Exchange” value read?
Answer: The value was ““+++” (≥50 = +++)”.

Question: “275 (VLLFIEHSV; listed as Homo sapiens) [compound 275]” was tested. Which “Peptide Exchange” value did it give?
Answer: Its value is ““+++” (≥50 = +++)”.

Question: How did the “Peptide Exchange” value turn out when “276 (VLNDGAPNV; listed as Homo sapiens) [compound 276]” was run?
Answer: The value was ““+++” (≥50 = +++)”.

Question: How did the “Peptide Exchange” value turn out when “277 (VMILKLPFL; listed as Homo sapiens) [compound 277]” was run?
Answer: The value was ““++” (≥20% = ++)”.

Question: “278 (YLDDLLPKL; listed as Homo sapiens) [compound 278]” was tested. Which “Peptide Exchange” value did it give?
Answer: Its value is ““+++” (≥50 = +++)”.

Question: “279 (YMAPEVVEA; listed as Homo sapiens) [compound 279]” was tested. Which “Peptide Exchange” value did it give?
Answer: Its value is ““+++” (≥50 = +++)”.

Question: “280 (YTLDSLYWSV; listed as Homo sapiens) [compound 280]” was tested. Which “Peptide Exchange” value did it give?
Answer: Its value is ““+++” (≥50 = +++)”.

Question: “283 (ILQPMDIHV; listed as Homo sapiens) [compound 283]” was tested. Which “Peptide Exchange” value did it give?
Answer: Its value is ““+++” (≥50 = +++)”.

Question: “284 (LLSAAEPVPA; listed as Homo sapiens) [compound 284]” was tested. Which “Peptide Exchange” value did it give?
Answer: Its value is ““++” (≥20% = ++)”.

Question: Which “Peptide Exchange” value does the source give for “285 (GVATAGCVNEV; listed as Homo sapiens) [compound 285]” here?
Answer: The value was ““++++” (≥75% = ++++)”.

Question: With “286 (FLLEDLSQKL; listed as Homo sapiens) [compound 286]” as the substance, how does the “Peptide Exchange” value read?
Answer: The value was ““+++” (≥50 = +++)”.

Question: Which “Peptide Exchange” value does the source give for “287 (FLWEEKFNSL; listed as Homo sapiens) [compound 287]” here?
Answer: Its value is ““++++” (≥75% = ++++)”.

Question: Which “Peptide Exchange” value does the source give for “288 (GLAESTGLLAV; listed as Homo sapiens) [compound 288]” here?
Answer: The value was ““+++” (≥50 = +++)”.

Question: “289 (ILEEQPMDMLL; listed as Homo sapiens) [compound 289]” was tested. Which “Peptide Exchange” value did it give?
Answer: The value was ““+++” (≥50 = +++)”.

Question: Which “Peptide Exchange” value does the source give for “291 (ILLNEDDLVTI; listed as Homo sapiens) [compound 291]” here?
Answer: Its value is ““+++” (≥50 = +++)”.

Question: “292 (AAALIIHHV; listed as Homo sapiens) [compound 292]” was tested. Which “Peptide Exchange” value did it give?
Answer: The value was ““+++” (≥50 = +++)”.

Question: With “293 (ALDIMIPMV; listed as Homo sapiens) [compound 293]” as the substance, how does the “Peptide Exchange” value read?
Answer: Its value is ““+++” (≥50 = +++)”.

Question: How did the “Peptide Exchange” value turn out when “294 (ALLDQLHTLL; listed as Homo sapiens) [compound 294]” was run?
Answer: The value was ““++++” (≥75% = ++++)”.

Question: With “295 (ALLQKLQQL; listed as Homo sapiens) [compound 295]” as the substance, how does the “Peptide Exchange” value read?
Answer: Its value is ““+++” (≥50 = +++)”.

Question: How did the “Peptide Exchange” value turn out when “296 (FIAPTGHSL; listed as Homo sapiens) [compound 296]” was run?
Answer: The value was ““++” (≥20% = ++)”.

Question: Which “Peptide Exchange” value does the source give for “297 (FLVEPQEDTRL; listed as Homo sapiens) [compound 297]” here?
Answer: Its value is ““+++” (≥50 = +++)”.

Question: With “298 (IILPVEVEV; listed as Homo sapiens) [compound 298]” as the substance, how does the “Peptide Exchange” value read?
Answer: The value was ““+++” (≥50 = +++)”.

Question: How did the “Peptide Exchange” value turn out when “299 (ILEENIPVL; listed as Homo sapiens) [compound 299]” was run?
Answer: The value was ““+++” (≥50 = +++)”.

Question: For “300 (ILLNPAYDVYL; listed as Homo sapiens) [compound 300]”, which “Peptide Exchange” value is on record?
Answer: The value was ““+++” (≥50 = +++)”.

Question: How did the “Peptide Exchange” value turn out when “301 (AASPIITLV; listed as Homo sapiens) [compound 301]” was run?
Answer: Its value is ““+++” (≥50 = +++)”.

Question: How did the “Peptide Exchange” value turn out when “302 (ILQDLTFVHL; listed as Homo sapiens) [compound 302]” was run?
Answer: The value was ““+++” (≥50 = +++)”.

Question: For “303 (ILSQPTPSL; listed as Homo sapiens) [compound 303]”, which “Peptide Exchange” value is on record?
Answer: Its value is ““+++” (≥50 = +++)”.

Question: With “304 (LAIVPVNTL; listed as Homo sapiens) [compound 304]” as the substance, how does the “Peptide Exchange” value read?
Answer: Its value is ““+” (≥10% = +)”.

Question: With “305 (LLFPQIEGIKI; listed as Homo sapiens) [compound 305]” as the substance, how does the “Peptide Exchange” value read?
Answer: The value was ““+++” (≥50 = +++)”.

Question: Which “Peptide Exchange” value does the source give for “306 (VVAEELENV; listed as Homo sapiens) [compound 306]” here?
Answer: Its value is ““++” (≥20% = ++)”.

Question: “308 (SLYDVSRMYV; listed as Homo sapiens) [compound 308]” was tested. Which “Peptide Exchange” value did it give?
Answer: Its value is ““++++” (≥75% = ++++)”.

Question: With “309 (ILYGTQFVL; listed as Homo sapiens) [compound 309]” as the substance, how does the “Peptide Exchange” value read?
Answer: Its value is ““+++” (≥50 = +++)”.

Question: Which “Peptide Exchange” value does the source give for “310 (LLSTLHLLV; listed as Homo sapiens) [compound 310]” here?
Answer: Its value is ““+++” (≥50 = +++)”.

Question: “311 (LLVDVEPKV; listed as Homo sapiens) [compound 311]” was tested. Which “Peptide Exchange” value did it give?
Answer: Its value is ““+++” (≥50 = +++)”.

Question: Which “Peptide Exchange” value does the source give for “312 (LLYNSTDPTL; listed as Homo sapiens) [compound 312]” here?
Answer: Its value is ““+++” (≥50 = +++)”.

Question: For “313 (LMADLEGLHL; listed as Homo sapiens) [compound 313]”, which “Peptide Exchange” value is on record?
Answer: The value was ““+++” (≥50 = +++)”.

Question: For “314 (LMKDCEAEV; listed as Homo sapiens) [compound 314]”, which “Peptide Exchange” value is on record?
Answer: Its value is ““+++” (≥50 = +++)”.

Question: How did the “Peptide Exchange” value turn out when “315 (LVYEAPETV; listed as Homo sapiens) [compound 315]” was run?
Answer: Its value is ““+++” (≥50 = +++)”.

Question: Which “Peptide Exchange” value does the source give for “316 (MLLEHGITL; listed as Homo sapiens) [compound 316]” here?
Answer: The value was ““+++” (≥50 = +++)”.

Question: How did the “Peptide Exchange” value turn out when “317 (NLLAHIWAL; listed as Homo sapiens) [compound 317]” was run?
Answer: Its value is ““+++” (≥50 = +++)”.

Question: For “318 (NLQVTQPTV; listed as Homo sapiens) [compound 318]”, which “Peptide Exchange” value is on record?
Answer: Its value is ““+++” (≥50 = +++)”.

Question: With “319 (QVIPQLQTV; listed as Homo sapiens) [compound 319]” as the substance, how does the “Peptide Exchange” value read?
Answer: The value was ““+++” (≥50 = +++)”.

Question: “321 (RLLEFELAQL; listed as Homo sapiens) [compound 321]” was tested. Which “Peptide Exchange” value did it give?
Answer: Its value is ““+++” (≥50 = +++)”.

Question: “324 (SLYSALQQA; listed as Homo sapiens) [compound 324]” was tested. Which “Peptide Exchange” value did it give?
Answer: The value was ““+++” (≥50 = +++)”.
